According to article doi:10.1101/116368:

Target: STARD1^S195E mutant (human StAR domain, residues 66-285) (human) (UniProt P49675)
Test: SEC

In the case of “STARD1^S195E mutant (human StAR domain, residues 66-285) (from UniProt P49675 66-285) (domain or fragment)”, the fraction of dimers is reported as under 3%.
